The record followed here is paper PMC3713010, “Sox2 Transcriptionally Regulates Pqbp1, an Intellectual Disability-Microcephaly Causative Gene, in Neural Stem Progenitor Cells”.

What all share (experiment): EMSA; 10% glycerol, 20 mM HEPES pH 7.8, 45 mM KCl, 10 mM NaCl, 1 mM EDTA, 1 mM DTT, 0.2 ug/uL BSA, 0.1% NP-40, 50 ng poly-dIdC; 20 ng each GST protein; room temperature 30 min (heterodimers 4 C); 6% PAGE 0.25x TBE
Common to all, as to settings: protein: recombinant; tags: GST (N-terminal, pGEX-6P-1); label: 32P-dCTP fill-in of the 5' (dG)5 overhangs of both strands (Methods; control probes are given with GGG)
On the technique in general: In EMSA bound probe runs differently from free probe, usually more slowly.

Data set [1] deals with Pax6 DNA-binding domain (BD-Pax6) (Mus musculus (B6), UniProt P63015 190-289). Summed up: (§1)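 DNA binding of transcription factor DNA-binding domains to candidate cis-elements was read from band radioactivity in the expected shift region. The GST-tagged domains came from E. coli BL21 via glutathione-sepharose; probes were annealed oligonucleotides labelled with 32P-dCTP. Each assay used 20 ng protein, 40,000–50,000 cpm probe and 50 ng poly-dIdC for 30 min at room temperature, followed by 6% polyacrylamide electrophoresis in 0.25×TBE at 4°C.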

In data set [2] the target is T1, Brn2 DNA-binding domain (BD-Brn2) (Mus musculus (B6), UniProt P31360 336-435).
T1 sequence: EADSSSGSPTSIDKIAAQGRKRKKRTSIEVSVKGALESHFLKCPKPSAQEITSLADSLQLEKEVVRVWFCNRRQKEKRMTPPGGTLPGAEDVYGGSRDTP
Summed up: as §1

Data set [3] concerns the target T2, Oct6 DNA-binding domain (BD-Oct6) (Mus musculus (B6), UniProt P21952 317-416).
T2 sequence: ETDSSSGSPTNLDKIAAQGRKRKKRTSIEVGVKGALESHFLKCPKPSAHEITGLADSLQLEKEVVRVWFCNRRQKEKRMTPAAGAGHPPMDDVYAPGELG
Summed up:
as §1

Pax6 DNA-binding domain (BD-Pax6), sequence (P63015 190-289): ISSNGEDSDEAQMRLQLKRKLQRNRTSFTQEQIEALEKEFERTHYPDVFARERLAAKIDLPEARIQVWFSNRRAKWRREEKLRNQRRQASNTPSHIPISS

B1: 7 (dsDNA)
DNA 1: GGGGGCAACCACCTCTAAATGCCTACAAATTGTATGGTCATCCCCC
DNA 2: GGGGGATGACCATACAATTTGTAGGCATTTAGAGGTGGTTGCCCCC
For the molecule B1, the binding result in data set [1], in data set [2] and in data set [3] was “no binding” throughout.

B2: 26 (dsDNA)
DNA 1: GGGGGGTGGAGGCTTTGTGTAATCAGTCTGTGTACCCCC
DNA 2: GGGGGTACACAGACTGATTACACAAAGCCTCCACCCCCC
As for B2, the binding result in data set [1] is “no binding”; in data set [2], “binds”; in data set [3], “binds”.

B3: 5 (dsDNA)
DNA 1: GGGGGTGTAGGTCATTGTGGCCTCAAATTTGGTAATGTAACCCCC
DNA 2: GGGGGTTACATTACCAAATTTGAGGCCACAATGACCTACACCCCC
As to B3, the values for the binding result in data set [1], in data set [2] and in data set [3] were “no binding”, “binds” and “no binding”, respectively.

B4: 17 (dsDNA)
DNA 1: GGGGGTTTAAAGATTTGTTTCTTTATTATATGTAAGTACCCCC
DNA 2: GGGGGTACTTACATATAATAAAGAAACAAATCTTTAAACCCCC
With B4, the binding result in data set [1] is “no binding”; in data set [2] it was “binds”; in data set [3], “binds”.

B5: 25 (dsDNA)
DNA 1: GGGGGCAGATAACTTTGTCCTTTTTGATTTTGAGTGAAGACCCCC
DNA 2: GGGGGTCTTCACTCAAAATCAAAAAGGACAAAGTTATCTGCCCCC
On to B5, for which the binding result in data set [1], in data set [2] and in data set [3] was “no binding” each time.

B6: 21 (dsDNA)
DNA 1: GGGGGCAGAATCATTTGTGTTTTCCCATTTTTGCCAGGGGCCCCC
DNA 2: GGGGGCCCCTGGCAAAAATGGGAAAACACAAATGATTCTGCCCCC
Take B6: the binding result in data set [1], in data set [2] and in data set [3] was “no binding” throughout.

B7: 23 (dsDNA)
DNA 1: GGGGGAATCTCTATCTTACTTCTTGTAAGTGTGGACAAATGCAGGTTCCCCC
DNA 2: GGGGGAACCTGCATTTGTCCACACTTACAAGAAGTAAGATAGAGATTCCCCC
For the molecule B7, the binding result in data set [1], in data set [2] and in data set [3] was “no binding” each time.

B8: 6 (dsDNA)
DNA 1: GGGGGAGGACTTAATTGTTCGCATTTCTGTATTCTGCCCCC
DNA 2: GGGGGCAGAATACAGAAATGCGAACAATTAAGTCCTCCCCC
Consider B8, for which the binding result in data set [1] is reported as “no binding”; in data set [2], “binds”; in data set [3], “binds”.

B9: 29 (dsDNA)
DNA 1: GGGGGAAAAACTTTTTGTTATTTCATTTTTATTAGTGGCCCCC
DNA 2: GGGGGCCACTAATAAAAATGAAATAACAAAAAGTTTTTCCCCC
Consider B9, for which the binding result in data set [1] is recorded as “no binding”; in data set [2] it was “no binding”; in data set [3], “binds”.

B10: 16b (dsDNA)
DNA 1: GGGGGGTAGCTTCACAAAGTGATTAACACATGGATACCCCC
DNA 2: GGGGGTATCCATGTGTTAATCACTTTGTGAAGCTACCCCCC
As to B10, the binding result in data set [1] is reported as “no binding”; in data set [2], “binds”; in data set [3], “binds”.

B11: 13 (dsDNA)
DNA 1: GGGGGTCTCCTGCTTTGTAGTCACAGAGTAGTCAAGAAGGGCTCCCCC
DNA 2: GGGGGAGCCCTTCTTGACTACTCTGTGACTACAAAGCAGGAGACCCCC
Take B11: the binding result in data set [1], in data set [2] and in data set [3] was “no binding” throughout.

B12: 27 (dsDNA)
DNA 1: GGGGGCACACCTGTTTGTTTTCCACTTCACAGAGGAGGCATAGGAAACTCCCCC
DNA 2: GGGGGAGTTTCCTATGCCTCCTCTGTGAAGTGGAAAACAAACAGGTGTGCCCCC
In the case of B12, the binding result in data set [1], in data set [2] and in data set [3] was “no binding” each time.

B13: 8 (dsDNA)
DNA 1: GGGGGGCTGTAACAGAATACCTGACAAAAGCAACTTCCCCC
DNA 2: GGGGGAAGTTGCTTTTGTCAGGTATTCTGTTACAGCCCCCC
Regarding B13, the binding result in data set [1], in data set [2] and in data set [3] was “no binding” in each case.

B14: 19 (dsDNA)
DNA 1: GGGGGGAAGGAAAATTGTTCCCTGACATTTTTGAACTGGGCCCCC
DNA 2: GGGGGCCCAGTTCAAAAATGTCAGGGAACAATTTTCCTTCCCCCC
Regarding B14, the binding result in data set [1], in data set [2] and in data set [3] was “no binding” in each case.

B15: 22 (dsDNA)
DNA 1: GGGGGTACATACAGCAAAATAATCTTTGTAGGGGGGACCCCC
DNA 2: GGGGGTCCCCCCTACAAAGATTATTTTGCTGTATGTACCCCC
With B15, the binding result in data set [1], in data set [2] and in data set [3] was “no binding” each time.

B16: 16a (dsDNA)
DNA 1: GGGGGGTGAACCCTTTCAGATTTAGTGACGTAGCTTCACAAAGTGATTAACCCCC
DNA 2: GGGGGTTAATCACTTTGTGAAGCTACGTCACTAAATCTGAAAGGGTTCACCCCCC
Consider B16, for which the figures for the binding result in data set [1], in data set [2] and in data set [3] were “no binding”, “binds” and “binds”, respectively.

B17: 14 (dsDNA)
DNA 1: GGGGGGTCAGGATTTTGTGTGTGGATTAACTGTATCATCCCCC
DNA 2: GGGGGATGATACAGTTAATCCACACACAAAATCCTGACCCCCC
On to B17, for which the binding result in data set [1], in data set [2] and in data set [3] was “no binding” each time.

B18: 20 (dsDNA)
DNA 1: GGGGGCTCAGAGCTAGAAATATTTGTGGAATGGGCCCCC
DNA 2: GGGGGCCCATTCCACAAATATTTCTAGCTCTGAGCCCCC
With B18, the binding result in data set [1], in data set [2] and in data set [3] was “no binding” in each case.

B19: 24 (dsDNA)
DNA 1: GGGGGCTTGTATCTTTGTATGTTCACAGAAAGCAAAGTAGCGTGGCCCCC
DNA 2: GGGGGCCACGCTACTTTGCTTTCTGTGAACATACAAAGATACAAGCCCCC
For B19, the binding result in data set [1], in data set [2] and in data set [3] was “no binding” each time.

B20: 28 (dsDNA)
DNA 1: GGGGGAAAAAAGATTCTAATCTTTTTTGTGGTGGTGGCCCCC
DNA 2: GGGGGCCACCACCACAAAAAAGATTAGAATCTTTTTTCCCCC
Consider B20, for which the binding result in data set [1], in data set [2] and in data set [3] was “no binding” in each case.

B21: 18 (dsDNA)
DNA 1: GGGGGCTTAGAATTAGTAATTTCTTGATATTGTCTGTTAAGCCCCC
DNA 2: GGGGGCTTAACAGACAATATCAAGAAATTACTAATTCTAAGCCCCC
For the molecule B21, the binding result in data set [1] is recorded as “binds”; in data set [2], “no binding”; in data set [3] it was “binds”.

B22: 15 (dsDNA)
DNA 1: GGGGGAGATCTTTACAAATTTCTATATTAGAGTTTTTTGTCCCCC
DNA 2: GGGGGACAAAAAACTCTAATATAGAAATTTGTAAAGATCTCCCCC
Consider B22, for which the binding result in data set [1], in data set [2] and in data set [3] was “no binding” throughout.
